In patent US20150166606A1 (RA PHARMACEUTICALS, published 2015):
Where two headings read alike, the source gives them in different places. Blank lines part the entries; values can stand above or below the binder they belong to. Bridge positions count the residues as written; N and C are the ends. Square brackets hold non-standard residues; d marks the D form. Ends that are not written are not given here. mXylyl = xylyl linker from dibromoxylene joining the two cysteines; NMeW = CN[C@@H](Cc1c[nH]c2ccccc12)C(=O)O; NMeY = CN[C@@H](Cc1ccc(O)cc1)C(=O)O; NMeT = CN[C@H](C(=O)O)[C@@H](C)O; Phg = N[C@H](C(=O)O)c1ccccc1; Tle = CC(C)(C)[C@H](N)C(=O)O; NMeS = CN[C@@H](CO)C(=O)O; NMeA = CN[C@@H](C)C(=O)O; Nva = CCC[C@H](N)C(=O)O

Tests used:
Assay in all cases: cell-based or functional assay
[1] = biological target: T1, Activated human plasma kallikrein (Enzyme Research Laboratories, HPKa 1303) (human, UniProt P03952 20-638)
[2] = biological target: T1, Activated human plasma kallikrein …; remark: listed apart in the source
[3] = biological target: mouse plasma kallikrein (R&D Systems) (mouse, UniProt P26262 20-638)
[4] = biological target: Factor Xa (Enzyme Research Laboratories) (human, UniProt P00742 41-488, limits assumed)
[5] = biological target: T1, Activated human plasma kallikrein …; remark: listed apart in the source
[6] = biological target: T2, Factor VIIa (Enzyme Research Laboratories) (human, UniProt P08709 61-466)
T2 sequence (looked up): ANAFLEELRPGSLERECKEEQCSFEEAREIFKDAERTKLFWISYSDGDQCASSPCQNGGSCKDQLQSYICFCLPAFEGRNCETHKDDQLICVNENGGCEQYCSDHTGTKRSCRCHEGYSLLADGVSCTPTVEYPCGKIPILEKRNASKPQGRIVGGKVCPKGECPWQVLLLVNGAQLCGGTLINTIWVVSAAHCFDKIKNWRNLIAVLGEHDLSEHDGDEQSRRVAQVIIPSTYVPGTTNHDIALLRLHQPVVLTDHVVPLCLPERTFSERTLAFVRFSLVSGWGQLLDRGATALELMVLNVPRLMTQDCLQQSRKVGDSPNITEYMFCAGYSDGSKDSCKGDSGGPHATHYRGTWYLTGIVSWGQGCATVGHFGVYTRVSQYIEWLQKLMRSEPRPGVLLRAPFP

[7] = biological target: Factor XIa (Enzyme Research Laboratories) (human, UniProt P03951 19-625)
[8] = biological target: thrombin (Enzyme Research Laboratories) (human, UniProt P00734 328-622)
[9] = biological target: T3, Factor XIIa (Enzyme Research Laboratories) (human, UniProt P00748 20-615, limits assumed)
T3 sequence (looked up): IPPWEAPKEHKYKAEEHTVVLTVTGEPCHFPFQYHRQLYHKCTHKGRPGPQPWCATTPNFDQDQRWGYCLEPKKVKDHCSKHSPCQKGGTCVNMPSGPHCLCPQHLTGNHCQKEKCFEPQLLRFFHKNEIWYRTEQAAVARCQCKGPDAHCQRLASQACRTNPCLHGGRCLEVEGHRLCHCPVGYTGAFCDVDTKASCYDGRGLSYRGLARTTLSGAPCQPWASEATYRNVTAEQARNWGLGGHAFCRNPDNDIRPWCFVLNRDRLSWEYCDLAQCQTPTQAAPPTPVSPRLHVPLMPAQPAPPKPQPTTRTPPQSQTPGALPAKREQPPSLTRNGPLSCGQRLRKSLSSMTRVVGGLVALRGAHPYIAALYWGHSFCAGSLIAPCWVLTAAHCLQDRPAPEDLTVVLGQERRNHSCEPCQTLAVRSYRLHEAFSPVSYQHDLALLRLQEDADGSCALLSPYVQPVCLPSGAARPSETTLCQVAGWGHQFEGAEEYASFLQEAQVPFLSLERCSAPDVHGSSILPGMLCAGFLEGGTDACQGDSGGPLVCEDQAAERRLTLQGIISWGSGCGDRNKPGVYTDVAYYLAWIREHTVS

[10] = biological target: T4, tissue kallikrein KLK13 (R&D Systems) (human, UniProt Q9UKR3 17-277, limits assumed)
T4 sequence (looked up): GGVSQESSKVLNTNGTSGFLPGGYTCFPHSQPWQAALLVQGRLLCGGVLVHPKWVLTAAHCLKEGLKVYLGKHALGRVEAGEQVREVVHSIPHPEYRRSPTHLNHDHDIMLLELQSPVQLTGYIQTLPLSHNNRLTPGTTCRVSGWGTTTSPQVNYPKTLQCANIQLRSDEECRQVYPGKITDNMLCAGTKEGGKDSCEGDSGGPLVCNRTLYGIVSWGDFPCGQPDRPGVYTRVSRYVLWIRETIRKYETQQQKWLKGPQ

[11] = biological target: plasmin (Enzyme Research Laboratories) (human, UniProt P00747 97-810, limits assumed)
[12] = biological target: T1, Activated human plasma kallikrein …; remark: listed apart in the source

T1 sequence (P03952 20-638 limits assumed): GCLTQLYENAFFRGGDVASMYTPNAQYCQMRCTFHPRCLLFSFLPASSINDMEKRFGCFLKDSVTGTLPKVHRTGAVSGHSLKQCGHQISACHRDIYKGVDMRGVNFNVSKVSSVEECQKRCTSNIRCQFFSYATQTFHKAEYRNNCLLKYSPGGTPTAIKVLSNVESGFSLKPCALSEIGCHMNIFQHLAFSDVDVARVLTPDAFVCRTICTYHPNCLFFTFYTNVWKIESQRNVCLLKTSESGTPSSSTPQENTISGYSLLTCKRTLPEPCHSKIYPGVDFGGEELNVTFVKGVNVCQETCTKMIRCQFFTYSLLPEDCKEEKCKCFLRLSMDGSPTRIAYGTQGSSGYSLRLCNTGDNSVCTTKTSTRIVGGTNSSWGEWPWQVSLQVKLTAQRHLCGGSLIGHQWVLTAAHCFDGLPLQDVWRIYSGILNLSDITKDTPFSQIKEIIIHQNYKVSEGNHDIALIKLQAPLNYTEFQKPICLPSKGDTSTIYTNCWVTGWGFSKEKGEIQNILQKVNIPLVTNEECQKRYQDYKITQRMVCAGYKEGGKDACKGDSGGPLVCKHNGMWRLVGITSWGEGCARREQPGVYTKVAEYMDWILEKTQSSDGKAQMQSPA
Chain of Factor Xa (Enzyme Research Laboratories) (P00742 41-488 limits assumed): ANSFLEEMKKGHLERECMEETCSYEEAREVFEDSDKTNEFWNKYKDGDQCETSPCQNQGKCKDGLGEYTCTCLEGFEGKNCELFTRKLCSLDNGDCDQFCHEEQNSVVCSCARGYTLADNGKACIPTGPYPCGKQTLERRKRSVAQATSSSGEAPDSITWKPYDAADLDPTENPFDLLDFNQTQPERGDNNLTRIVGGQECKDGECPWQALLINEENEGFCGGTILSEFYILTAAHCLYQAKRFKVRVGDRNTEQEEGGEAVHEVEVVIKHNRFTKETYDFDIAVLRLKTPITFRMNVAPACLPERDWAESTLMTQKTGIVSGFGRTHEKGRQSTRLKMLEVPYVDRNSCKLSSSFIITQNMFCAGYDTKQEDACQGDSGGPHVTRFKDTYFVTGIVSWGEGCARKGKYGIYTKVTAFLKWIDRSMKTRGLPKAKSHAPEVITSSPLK
Chain of plasmin (Enzyme Research Laboratories) (P00747 97-810 limits assumed): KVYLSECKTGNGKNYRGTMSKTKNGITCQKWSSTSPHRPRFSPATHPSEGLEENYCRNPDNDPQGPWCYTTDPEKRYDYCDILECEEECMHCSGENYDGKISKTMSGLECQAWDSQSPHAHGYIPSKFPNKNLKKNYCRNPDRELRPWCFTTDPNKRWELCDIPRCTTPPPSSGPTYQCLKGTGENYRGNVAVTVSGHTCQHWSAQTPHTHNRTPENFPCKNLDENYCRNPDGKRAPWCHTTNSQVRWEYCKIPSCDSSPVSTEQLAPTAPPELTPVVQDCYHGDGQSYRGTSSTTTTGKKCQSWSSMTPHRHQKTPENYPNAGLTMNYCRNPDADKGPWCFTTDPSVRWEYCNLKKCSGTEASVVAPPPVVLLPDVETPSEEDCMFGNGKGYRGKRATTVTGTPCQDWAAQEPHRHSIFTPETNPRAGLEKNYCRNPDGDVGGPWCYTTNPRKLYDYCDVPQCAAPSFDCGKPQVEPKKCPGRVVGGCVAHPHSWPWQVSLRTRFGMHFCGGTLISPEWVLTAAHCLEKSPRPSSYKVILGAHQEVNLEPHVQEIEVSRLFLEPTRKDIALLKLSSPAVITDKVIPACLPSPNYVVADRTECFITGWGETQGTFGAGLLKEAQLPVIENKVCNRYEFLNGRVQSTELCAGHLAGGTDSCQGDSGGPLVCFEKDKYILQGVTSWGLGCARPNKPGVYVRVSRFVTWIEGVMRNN
Chain of Factor XIa (Enzyme Research Laboratories) (P03951 19-625 limits assumed): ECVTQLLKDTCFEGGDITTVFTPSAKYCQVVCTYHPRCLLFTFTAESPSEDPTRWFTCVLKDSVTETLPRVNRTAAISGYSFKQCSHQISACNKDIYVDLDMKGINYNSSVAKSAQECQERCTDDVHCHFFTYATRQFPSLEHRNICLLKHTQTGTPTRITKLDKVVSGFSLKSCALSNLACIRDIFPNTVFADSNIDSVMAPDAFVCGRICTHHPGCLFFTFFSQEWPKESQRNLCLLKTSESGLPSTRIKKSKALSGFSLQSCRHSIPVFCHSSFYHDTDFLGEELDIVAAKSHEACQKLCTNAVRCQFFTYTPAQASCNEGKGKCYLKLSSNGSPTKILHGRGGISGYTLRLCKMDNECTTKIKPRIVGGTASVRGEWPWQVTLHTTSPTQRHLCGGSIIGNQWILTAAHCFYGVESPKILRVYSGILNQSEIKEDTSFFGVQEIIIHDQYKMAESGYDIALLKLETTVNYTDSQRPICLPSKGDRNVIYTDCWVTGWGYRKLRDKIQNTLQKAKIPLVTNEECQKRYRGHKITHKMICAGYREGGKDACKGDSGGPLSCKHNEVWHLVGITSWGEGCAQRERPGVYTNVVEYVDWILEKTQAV
Chain of mouse plasma kallikrein (R&D Systems) (P26262 20-638 limits assumed): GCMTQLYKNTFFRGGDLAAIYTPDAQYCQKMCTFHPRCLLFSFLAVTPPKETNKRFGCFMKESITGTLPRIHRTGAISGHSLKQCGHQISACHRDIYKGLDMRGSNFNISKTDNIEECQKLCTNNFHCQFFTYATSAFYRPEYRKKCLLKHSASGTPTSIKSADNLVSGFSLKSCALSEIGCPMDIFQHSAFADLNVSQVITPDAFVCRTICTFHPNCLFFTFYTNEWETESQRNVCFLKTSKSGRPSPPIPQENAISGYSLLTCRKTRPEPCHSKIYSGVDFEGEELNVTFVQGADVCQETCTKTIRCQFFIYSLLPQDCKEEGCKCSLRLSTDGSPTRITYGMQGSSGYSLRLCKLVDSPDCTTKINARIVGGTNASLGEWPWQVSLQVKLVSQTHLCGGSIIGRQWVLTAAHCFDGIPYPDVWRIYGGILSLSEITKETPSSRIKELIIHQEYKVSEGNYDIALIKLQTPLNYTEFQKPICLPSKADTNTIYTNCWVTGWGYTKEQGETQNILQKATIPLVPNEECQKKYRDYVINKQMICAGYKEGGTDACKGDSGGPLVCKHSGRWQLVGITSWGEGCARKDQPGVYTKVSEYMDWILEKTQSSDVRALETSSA

Binder: MCESICR[Tle]-NH2 (linker 2-6 via mXylyl) [R2010]
Mouse Kallikrein IC50 [3]: 0.0388 µM | Factor Xa IC50 [4]: > 100 µM | Human Kallikrein IC50 [5]: 0.0099 µM | Factor VIIa IC50 [6]: > 100 µM | Factor XIa IC50 [7]: > 15 µM | Thrombin IC50 [8]: > 100 µM | Factor XIIa IC50 [9]: > 100 µM | KLK13 IC50 [10]: > 100 µM | Plasmin IC50 [11]: > 100 µM | Avg. IC50 [12]: 0.0099 µM

Binder: Ac-CNYWSP[NMeW]TAC-NH2 (cysteine pairing not given here) [R2236]
Avg. IC50 [2]: > 4.9 µM

Binder: Ac-ANYWSPWTAC-NH2 [R2143]
Avg. IC50 [1]: 0.0484 µM

Binder: Ac-CNYWSPWTA[dC]-NH2 (cysteine pairing not given here) [R2225]
Avg. IC50 [2]: 0.0081 µM

Binder: Ac-CESICRV-NH2 (linker 1-5 via mXylyl) [R2023]
Mouse Kallikrein IC50 [3]: 0.0473 µM | Factor Xa IC50 [4]: > 7 µM | Human Kallikrein IC50 [5]: 0.019 µM | Factor VIIa IC50 [6]: > 100 µM | Factor XIa IC50 [7]: > 12.1 µM | Thrombin IC50 [8]: > 100 µM | Factor XIIa IC50 [9]: > 100 µM | KLK13 IC50 [10]: > 100 µM | Plasmin IC50 [11]: > 100 µM | Avg. IC50 [12]: 0.019 µM

Binder: Ac-ANYWSPWTAA-NH2 [R2145]
Avg. IC50 [1]: 0.0588 µM

Binder: Ac-CN[NMeY]W[NMeS]PW[NMeT]AC-NH2 (disulfide 1-10) [R2224]
Avg. IC50 [2]: > 100 µM

B1: R2142 (peptide)
peptide: Ac-CNYWSPWTAC-NH2
modifications: disulfide 1-10
SMILES: CC(=O)N[C@H]1CSSC[C@@H](C(N)=O)NC(=O)[C@H](C)NC(=O)[C@H]([C@@H](C)O)NC(=O)[C@H](Cc2c[nH]c3ccccc23)NC(=O)[C@@H]2CCCN2C(=O)[C@H](CO)NC(=O)[C@H](Cc2c[nH]c3ccccc23)NC(=O)[C@H](Cc2ccc(O)cc2)NC(=O)[C@H](CC(N)=O)NC1=O
Avg. IC50 [1]: 0.0027 µM

Binder: [Nva]CEP[Phg]CR[Tle]-NH2 (linker 2-6 via mXylyl) [R2030]
Mouse Kallikrein IC50 [3]: 0.0639 µM | Factor Xa IC50 [4]: > 100 µM | Human Kallikrein IC50 [5]: 0.025 µM | Factor VIIa IC50 [6]: > 100 µM | Factor XIa IC50 [7]: > 10.4 µM | Thrombin IC50 [8]: > 100 µM | Factor XIIa IC50 [9]: > 100 µM | KLK13 IC50 [10]: > 100 µM | Plasmin IC50 [11]: > 100 µM | Avg. IC50 [12]: 0.025 µM

Binder: Ac-CN[NMeY]WSPWTAC-NH2 (cysteine pairing not given here) [R2239]
Avg. IC50 [2]: > 12.5 µM

Binder: Ac-CNYWSPWT[NMeA]C-NH2 (cysteine pairing not given here) [R2234]
Avg. IC50 [2]: 0.0027 µM

Binder: MCES[Phg]CRV-NH2 (linker 2-6 via mXylyl) [R2012]
Mouse Kallikrein IC50 [3]: 0.0113 µM | Human Kallikrein IC50 [5]: 0.0083 µM | Factor XIa IC50 [7]: > 8.3 µM | KLK13 IC50 [10]: > 100 µM | Avg. IC50 [12]: 0.0083 µM

Binder: Ac-CNYWSPWAAC-NH2 (cysteine pairing not given here) [R2146]
Avg. IC50 [1]: 0.0175 µM

Binder: Ac-CNYWSPWT[dA]C-NH2 (cysteine pairing not given here) [R2226]
Avg. IC50 [2]: 0.222 µM

Binder: Ac-CNYWS[dP]WTAC-NH2 (cysteine pairing not given here) [R2229]
Avg. IC50 [2]: > 14.3 µM

Binder: MCE[NMeS]ICRV-NH2 (linker 2-6 via mXylyl) [R2019]
Mouse Kallikrein IC50 [3]: 0.0856 µM | Factor Xa IC50 [4]: > 10 µM | Human Kallikrein IC50 [5]: 0.0523 µM | Factor VIIa IC50 [6]: > 100 µM | Factor XIa IC50 [7]: > 9.1 µM | Thrombin IC50 [8]: > 100 µM | Factor XIIa IC50 [9]: > 12.5 µM | KLK13 IC50 [10]: > 16.4 µM | Plasmin IC50 [11]: > 21 µM | Avg. IC50 [12]: 0.0523 µM

Binder: Ac-CNY[dW]SPWTAC-NH2 (cysteine pairing not given here) [R2231]
Avg. IC50 [2]: 0.76 µM

Continued, values first:

Avg. IC50 [1]: 0.0955 µM
Binder: Ac-CNYWSPWTAA-NH2 [R2144]

Avg. IC50 [2]: > 1.95 µM
Binder: Ac-CN[dY]WSPWTAC-NH2 (cysteine pairing not given here) [R2232]

Avg. IC50 [2]: 0.323 µM
Binder: Ac-CNYWSPW[dT]AC-NH2 (cysteine pairing not given here) [R2227]

Avg. IC50 [2]: > 10.6 µM
Binder: Ac-CNYWSP[dW]TAC-NH2 (cysteine pairing not given here) [R2228]

Mouse Kallikrein IC50 [3]: 0.042 µM | Factor Xa IC50 [4]: > 7 µM | Human Kallikrein IC50 [5]: 0.025 µM | Factor VIIa IC50 [6]: > 100 µM | Factor XIa IC50 [7]: > 11.6 µM | Thrombin IC50 [8]: > 100 µM | Factor XIIa IC50 [9]: > 100 µM | KLK13 IC50 [10]: > 100 µM | Plasmin IC50 [11]: > 100 µM | Avg. IC50 [12]: 0.0118 µM
Binder: MCESICRV-NH2 (linker 2-6 via mXylyl) [R2006]

Avg. IC50 [2]: > 4.52 µM
Binder: Ac-CNY[NMeW]SPWTAC-NH2 (cysteine pairing not given here) [R2238]

Avg. IC50 [2]: 0.305 µM
Binder: Ac-C[dN]YWSPWTAC-NH2 (cysteine pairing not given here) [R2233]

Avg. IC50 [2]: > 100 µM
Binder: Ac-CN[NMeY]W[NMeS]PW[NMeT]AC-NH2 (linker 1-10 via mXylyl) [R2223]

Avg. IC50 [2]: 0.926 µM
Binder: CNYWSPWTAA (also: Cyclo(1,10): ring between residues 1 and 10, bond kind not given here) [R2222]

Avg. IC50 [2]: > 13.9 µM
Binder: Ac-CNYW[NMeS]PWTAC-NH2 (cysteine pairing not given here) [R2237]

Avg. IC50 [2]: 0.101 µM
Binder: Ac-CNYWSPW[NMeT]AC-NH2 (cysteine pairing not given here) [R2235]

Avg. IC50 [2]: > 6.58 µM
Binder: Ac-CNYW[dS]PWTAC-NH2 (cysteine pairing not given here) [R2230]
